pEC50: −log10 of the molar value. Like-named read-outs stand apart in the source and are kept apart here.
Columns and labels:
T47D cells (human) [1] = target: T47D cells (human) (UniProt P15328); test: flow cytometry binding on T47D cells
T47D cells (human) [2] = target: T47D cells (human) (UniProt P15328); test: flow cytometry binding on T47D cells; remark: listed apart in the source

T47D cells (human), sequence (P15328 25-234, stated change not applied): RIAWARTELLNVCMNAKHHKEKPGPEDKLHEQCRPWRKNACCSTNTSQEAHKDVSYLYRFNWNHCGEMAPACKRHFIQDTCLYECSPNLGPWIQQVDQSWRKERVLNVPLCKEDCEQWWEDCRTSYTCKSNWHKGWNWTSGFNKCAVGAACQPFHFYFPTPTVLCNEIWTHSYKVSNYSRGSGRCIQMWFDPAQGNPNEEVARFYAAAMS

pEC50 (T47D cells (human) [1]): 9.50 | pEC50 (T47D cells (human) [2]): 9.84
Substance: huMOV19

From patent publication US20170340748A1
